Test results taken from publication PMC7335187, “Super-assembly of ER-phagy receptor Atg40 induces local ER remodeling at contacts with forming autophagosomal membranes” (Nature Communications, 2020).

Tests used:
[1] = molecular target: Atg8 (1-116) K26P (S. cerevisiae) (UniProt P38182); assay: ITC; MicroCal iTC200, 25 °C; peptide in the syringe (FAM134B, SEC62, RTN3 0.5 mM; Atg40^234–252 2.0 mM; Atg40^237–252 1.8 mM), Atg8-family protein in the cell at 10 times lower concentration (1.8 mM Atg8 for Atg40^237–252 D243A D247A); 20 mM HEPES pH 6.8, 150 mM NaCl; single-site model; errors are fitting errors
Atg8 (1-116) K26P (S. cerevisiae), sequence (P38182 1-116 K26P): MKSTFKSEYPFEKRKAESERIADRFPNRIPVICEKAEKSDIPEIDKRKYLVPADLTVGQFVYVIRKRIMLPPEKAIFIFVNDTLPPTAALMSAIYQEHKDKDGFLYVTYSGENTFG

[2] = molecular target: LC3B WT (rat LC3B 1-120) (rat) (UniProt Q62625); assay: ITC; peptide in the syringe (0.5 mM) titrated into 200 µl of the Atg8 homologue in the cell at a 10 times lower concentration; MicroCal iTC200, 25 °C, stirring at 1000 rpm; single-site binding model; N fixed to 1.0 when the fitting was not convergent due to weak interaction; errors are fitting errors
[3] = molecular target: GABARAP WT (human GABARAP 1-116) (human) (UniProt O95166); assay: as above
GABARAP WT (human GABARAP 1-116) (human), sequence (O95166 1-116): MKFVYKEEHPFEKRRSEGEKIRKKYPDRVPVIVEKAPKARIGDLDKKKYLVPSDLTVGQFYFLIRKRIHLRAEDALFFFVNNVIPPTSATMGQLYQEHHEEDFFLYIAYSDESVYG

GABARAPL2 WT = GABARAPL2 WT (UniProt P60520); assay: as above
GABARAPL2 WT, sequence (P60520 whole entry): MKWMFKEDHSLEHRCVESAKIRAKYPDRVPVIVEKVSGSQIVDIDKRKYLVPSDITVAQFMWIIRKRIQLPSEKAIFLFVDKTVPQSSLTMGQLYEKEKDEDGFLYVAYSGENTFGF

LC3A WT = LC3A WT (UniProt Q9H492); assay: as above
GABARAPL1 WT = GABARAPL1 WT (UniProt Q9H0R8); assay: as above
GABARAPL1 WT, sequence (Q9H0R8 whole entry): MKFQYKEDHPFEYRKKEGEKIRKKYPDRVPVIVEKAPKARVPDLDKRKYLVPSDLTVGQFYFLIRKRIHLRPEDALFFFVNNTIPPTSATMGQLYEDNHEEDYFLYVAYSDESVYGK

LC3C WT = LC3C WT (UniProt Q9BXW4); assay: as above
LC3C WT, sequence (Q9BXW4 1-126): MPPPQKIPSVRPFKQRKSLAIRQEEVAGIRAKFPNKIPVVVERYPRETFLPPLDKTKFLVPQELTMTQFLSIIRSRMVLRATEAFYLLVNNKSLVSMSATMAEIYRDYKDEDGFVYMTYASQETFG

Atg40^237–252 peptide (from UniProt Q99325 237-252)
Kd [1]: 570 nM

FAM134B444-470 E456A E462A peptide
Kd [2]: 8200 nM | stoichiometry N [2]: 1.28 site

FAM134B444-470 L458A peptide
Kd [3]: 2060 nM | stoichiometry N [3]: 0.99 site

FAM134B444-470 WT peptide
Kd (GABARAPL2 WT): 300 nM | stoichiometry N (GABARAPL2 WT): 0.89 site | Kd (LC3A WT): 210 nM | stoichiometry N (LC3A WT): 0.7 site | Kd (GABARAPL1 WT): 120 nM | stoichiometry N (GABARAPL1 WT): 0.97 site | Kd (LC3C WT): 1110 nM | stoichiometry N (LC3C WT): 0.74 site | Kd [2]: 620 nM | stoichiometry N [2]: 1.08 site
